One molecule from PMC7897279 can be followed below.

In this data set the target is DNA-PKcs;Ku70;Ku80 (Homo sapiens (HeLa cells);Homo …, UniProt P78527;P12956;P13010 1-4128;1-609;1-732, ||).

B1: 40N (nicked 40 bp DNA) (dsDNA)
DNA 1: GCATGCTCTACTGCTTCGATATCG
DNA 2: AAGCAGTAGAGCATGC
DNA 3: GCATGCTCTACTGCTTCGATATCG
DNA 4: AAGCAGTAGAGCATGC
modifications: none stated
Regarding B1, the binding result is “binds”.
